Data as given in patent publication US20030087328A1.

Columns and labels:
[1] = test system: T1, Src-1 optical probe (GEEEIYGEIEK, SEQ. ID. NO: 3)
T1 sequence: GEEEIYGEIEK

[2] = test system: T2, Src-2 optical probe (GEEEIYGVIEK, SEQ. ID. NO: 29), non-phosphorylated
T2 sequence: GEEEIYGVIEK

[3] = test system: T3, phosphorylated abl-specific substrate optical probe (SEQ. I.D. No. 4)
T3 sequence: AEAIYAAPLK

[4] = test system: T4, phosphorylated Src-2-specific substrate optical probe (SEQ. ID. NO: 29)
T4 sequence: RRFHSRRRR

[5] = biological target: protein kinase A; assay: cell-based or functional assay
[6] = biological target: T5, abl-specific substrate optical probe (AEAIYAAPL, SEQ. ID. NO: 4), non-phosphorylated
T5 chain: AEAIYAAPLK

For Src kinase (Upstate Biotechnology), the “apparent Km (fluorescence measurements after protease incubation)” value [1] was 11 µM and 19 µM respectively and the “apparent Km (fluorescence measurements after protease incubation)” value [2] was 11 µM and 19 µM respectively.

In the case of “protein tyrosine phosphatase-B (PTP-B) agarose (Upstate Biotechnology)”, the “relative rate of dephosphorylation” value [3] is reported as “the Src-2 substrate is more readily de-phosphorylated than the abl substrate”, the “Kcat/Km (dephosphorylation)” value [4] is reported as “nearly 10^8 M^-1sec^-1” and the “apparent Km (Michaelis-Menten plot, dephosphorylation)” value [4] is reported as “the apparent Km for the Src-2optical probe is 1.3 µM”. For the same molecule, the “kcat (dephosphorylation)” value [4] was “the kcat is 79 sec^-1” and the “relative rate of dephosphorylation” value [4] was “the Src-2 substrate is more readily de-phosphorylated than the abl substrate”.

With “PKI (substrate competitive inhibitor of protein kinase A) (peptide)” the 460/530 Emission Ratio, Kinase + the inhibitor PKI (2.8 µM) (negative control 11.67, positive control 2.11) (460/530 emission ratio) [5] was 11.7.

B1: Recombinant v-Abl kinase (protein)
chain: YITPVNSLEKHSWYHGPVSRNAAEYLLSSGINGSFLVRESESSPGQRSISLRYEGRVYHYRINTASDGKLYVSSESRFNTLAELVHHHSTVADGLITTLHYPAPKRNKPTIYGVSPNYDKWEMERTDITMKHKLGGGQYGEVYEGVWKKYSLTVAVKTLKEDTMEVEEFLKEAAVMKEIKHPNLVQLLGVCTREPPFYIITEFMTYGNLLDYLRECNRQEVSAVVLLYMATQISSAMEYLEKKNFIHRDLAARNCLVGENHLVKVADFGLSRLMTGDTYTAHAGAKFPIKWTAPESLAYNKFSIKSDVWAFGVLLWEIATYGMSPYPGIDLSQVYELLEKDYRMERPEGCPEKVYELMRACWQWNPSDRPSFAEIHQAFETMFQESSISDEVEKELGKRGTRG
For B1, the “apparent Km for the substrate (kinetics of phosphorylation, FRET/chymotrypsin read-out)” value [6] was “apparent Km for the substrate of 40 µM” and the “turnover (kcat) of the optical probe” value [6] was “The turnover of the optical probe by v-Abl was 9.5 sec^-1”.
